The record followed here is PMC7658486.

The assay has as its target rainbow trout IL-2 (IL-2A), FLAG-tagged, from insect cells (rainbow trout (Oncorhynchus mykiss)). The assay can be described thus: SEC; Superose 12 column, PBS (-), 0.5 ml/min, 10-15 μg protein purified from insect cell supernatant; calibrated with standard proteins. For orientation: Size exclusion chromatography separates by hydrodynamic size, large species first.

As usually defined, the stoichiometry N is a count of units in the complex or per binding partner.

In turn, “rainbow trout IL-2 (IL-2A), FLAG-tagged, from insect cells (ligand)” gave a stoichiometry N of 2.
